Here are results for 2 molecules from US20160237160A1 (Bayer, published 2016).

Assay [1] has as its target T1, TPP-601 (MURINE-TNFRSF12Aaa28-80-hIgG1-Fc) (murine).
T1 construct: dimeric; also called murine TWEAKR Fc
Nature of the assay: SPR, TWEAKR-Fc immobilized, IgG injected, bivalent analyte model (avidity mode). (In general: SPR reads the build-up and loss of mass on a sensor chip optically.)
Procedure: (§1) Sensorgrams were generated after in-line reference cell correction followed by buffer sample subtraction. The dissociation equilibrium constant (KD) was calculated based on the ratio of association (kₒₙ₁) and dissociation rated (koff1) constants, obtained by fitting sensorgrams with a bivalent analyte model using Biavaluation Software (version 4.0).

Assay [2] deals with T2, TPP-1846 (MAC-TNFRSF12Aaa28-80-hIgG1-Fc) (macaca fascicularis).
T2 construct: bivalent antigen; also called mac fasc TWEAKR Fc
The description is as above.
Procedure: as §1

The target in assay [3] is T3, TPP-1779 (RAT-TNFRSF12Aaa28-80-hIgG1-Fc) (rat).
T3 construct: bivalent antigen; also called rat TWEAKR Fc
Described as above.
Procedure: as §1

For assay [4], the target named is T4, TPP-1778 (PIG-TNFRSF12Aaa28-80-hIgG1-Fc) (pig).
T4 construct: bivalent antigen; also called pig TWEAKR Fc
The assay is described as above.
Procedure: as §1

The target in assay [5] is T5, TPP-1777 (DOG-TNFRSF12Aaa28-80-hIgG1-Fc) (dog).
T5 construct: bivalent antigen; also called dog TWEAKR Fc
The assay is described as above.
Procedure: as §1

Assay [6] has as its target T6, TPP-599 (HUMAN-TNFRSF12Aaa28-80-hIgG1-Fc) (human).
T6 construct: dimeric; also called human TWEAKR Fc; TWEAKR-Fc
Described as above.
Procedure: as §1

Assay [7] deals with T7, TPP-2203 (TWEAKR-ECD-34-68-hIgGFc-His) (human).
T7 construct: dimeric; also called TWEAKR(34-68)-Fc fusion protein; truncated ectodomain 34-68
Nature of the assay: ELISA, TPP-2203 coated at 1 µg/ml, biotinylated IgG at 0.08 µg/ml (open bar) and 0.3 µg/ml (filled bar), Streptavidin-HRP, Amplex Red. On the technique in general: An ELISA detects its analyte on a solid surface through an enzyme-linked reagent.
Procedure: (§2) Detection was done with Streptavidin-HRP and Amplex-Red substrate.
(§3) To analyze for binding, 1 μg/ml of the respective dimeric TWEAKR-Fc construct were coated and, 0.3 μg/ml and 0.08 μg/ml of biotinylated IgG were used as soluble binding partner. Detection was done with Streptavidin-HRP and Amplex-Red substrate.

For assay [8], the target named is T8, TPP-1984 (hTNFRSF12Aaa28-68-CT-His) (human).
T8 construct: monomeric ectodomain with HIS6 tag; also called TWEAKR(28-68)-HIS; C-terminally truncated TWEAKR ectodomain
T8 chain: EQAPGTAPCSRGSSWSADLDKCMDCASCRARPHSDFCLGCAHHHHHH
The experiment in a line: ELISA, TPP-1984 coated at 1 µg/ml, biotinylated IgG at 0.08 µg/ml (open bar) and 0.3 µg/ml (filled bar), Streptavidin-HRP, Amplex Red.
Procedure: as §2, §3

Assay [9] addresses T9, Lymphotioxin β R Fc fusion protein (Human, UniProt P36941 31-227).
T9 construct: extracellular domain; bought; also called Lymphotioxin B R
Nature of the assay: ELISA, Fc fusion protein coated at 1 µg/ml, TPP-2090 at 75 nM, Amplex Red.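 Also: binding reported as ELISA signal intensity in Rfu against a panel of TNF receptor superfamily members presented as Fc fusion proteins.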
Source text: Shown is the result of an ELISA: Y is “ELISA signal intensity [Rfu]”; X are “TNF receptor superfamily proteins tested (Fc-fusion proteins)”: 1 is “TWEAKR”; 2 is “TWEAKR”; 3 is “Apo-3”; 4 is “Trail-R1”; 5 is “Trail-R2”; 6 is “CD385”; 7 is “CD95”; 8 is “Rank”; 9 is “TNF-R1”; 10 is “TNF-R2”; 11 is “BAFF-R”; 12 is “DcR3”; 13 is “BCMA”; 14 is “TACI”; 15 is “OX40”; 16 is “CD30”; 17 is “CD27”; 18 is “CD40”; 19 is “Osteoprotegerin”; 20 is “EDAR”; 21 is “GITR”; 22 is “HVEM”; 23 is “NGF R”; 24 is “Trail R3”; 25 is “Lymphotioxin B R”; 26 is “Trail R4”; 27 is “EDA2R”; 28 is “TROY”; 29 is “RELT”; 30 is “4-1BB”.
To collect dose-response data a serial 3fold dilution of biotinylated IgG starting with a concentration of 2 μM was used as soluble binding partner. Detection was done with anti-hIgG1-HRP and Amplex Red.

For assay [10], the target named is T10, TPP-2614 (TweakR-ECD-34-68-hIgGFc-His-D47A) (human).
T10 construct: also called D47A TWEAKR mutein
Nature of the assay: ELISA, IgG coated 1 ug/ml, TWEAKR variant 250 ng/ml, anti-HIS HRP (FIG. 6C).
Procedure: (§4) Antibodies were coated (1 μg/ml), TWEAKR variant was added at 250 ng/ml, detection via anti-HIS HRP. […] Antibodies were coated (1 μg/ml), TWEAKR variant was added 250 ng/ml, detection via anti-HIS HRP.

In assay [11] the target is T10, TPP-2614 …. Nature of the assay: ELISA, antibody coated at 1 µg/ml, TWEAKR variant at 250 ng/ml, anti-HIS HRP; normalized by WT; the legend of B does not name the variant, D47A by paragraph 82 and paragraph 368.
Procedure: as §4
In assay [12] the target is T11, TPP-2609 (TweakR-ECD-34-68-hIgGFc-His-S40A) (human).
T11 construct: used as HEK293 supernatant
Nature of the assay: ELISA, IgG coated 1 ug/ml, HEK293 supernatant titrated.
Procedure: (§5) These TWEAKR(34-68)-Fc muteins were expressed in HEK293 cells. To collect dose-response data, IgGs were coated at a concentration of 1 μg/ml in a 384-well Maxisorp ELISA plate and a serial 2fold dilution of the TWEAKR mutein containing supernatant was used as soluble binding partner. Detection was done with anti-HIS-HRP and Amplex Red.

Assay [13] deals with T12, TPP-2611 (TweakR-ECD-34-68-hIgGFc-His-W42A) (human).
T12 construct: used as HEK293 supernatant; also called W42A (34-68 construct)
The description is as above.
Procedure: as §5

Assay [14] addresses T13, TPP-2625 (TweakR-ECD-34-68-hIgGFc-His-L65A) (human).
T13 construct: used as HEK293 supernatant
Described as above.
Procedure: as §5

For assay [15], the target named is TPP-2610 (TweakR-ECD-34-68-hIgGFc-His-S41A) (human). The assay is described as above.
Procedure: as §5
Assay [16] addresses T14, TPP-2620 (TweakR-ECD-34-68-hIgGFc-His-P59A) (human).
T14 construct: used as HEK293 supernatant
The assay is described as above.
Procedure: as §5

In assay [17] the target is T15, TPP-2624 (TweakR-ECD-34-68-hIgGFc-His-F63A) (human).
T15 construct: used as HEK293 supernatant
The assay is described as above.
Procedure: as §5

The target of assay [18] is T16, TPP-2623 (TweakR-ECD-34-68-hIgGFc-His-D62A) (human).
T16 construct: used as HEK293 supernatant
Described as above.
Procedure: as §5

The target in assay [19] is T17, TPP-2615 (TweakR-ECD-34-68-hIgGFc-His-K48A) (human).
T17 construct: used as HEK293 supernatant
Described as above.
Procedure: as §5

Assay [20] concerns the target T18, TPP-2617 (TweakR-ECD-34-68-hIgGFc-His-S54A) (human).
T18 construct: used as HEK293 supernatant
The description is as above.
Procedure: as §5

Assay [21] has as its target T19, TPP-2618 (TweakR-ECD-34-68-hIgGFc-His-R56A) (human).
T19 construct: used as HEK293 supernatant
The assay is described as above.
Procedure: as §5

Assay [22] addresses T6, TPP-599 …. The experiment in a line: ELISA, TWEAKR-Fc coated 62 ng/ml, biotin-IgG titrated; + means IC50 1 to 150 pM.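 Also: biotinylated IgG binding to immobilized TWEAKR-Fc muteins, detected with Streptavidin-HRP and Amplex Red, IC50 derived from fitted dose-response curves of twofold serial dilutions.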
Procedure: To collect dose-response data, the different TWEAKR-Fc muteins were coated with a low concentration (62 ng/ml) in a 384-well Maxisorb ELISA plate and a serial 2fold dilution of biotinylated IgG starting with a concentration of 100 nM was used as soluble binding partner. Detection was done with Streptavidin-HRP and Amplex Red.
The dose-response data were fitted and IC50s determined.
Assay [23] addresses TWEAKR (TNFRSF12A, FN14), human, on tumor cell lines (human, UniProt Q9NP84 28-129). The experiment in a line: cell-based or functional assay.
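For Kd in this document: kd derived as the ratio of fitted dissociation to association rate constants, with sensorgrams corrected against a reference flow cell and a buffer blank before fitting.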

T9 sequence (P36941 31-227): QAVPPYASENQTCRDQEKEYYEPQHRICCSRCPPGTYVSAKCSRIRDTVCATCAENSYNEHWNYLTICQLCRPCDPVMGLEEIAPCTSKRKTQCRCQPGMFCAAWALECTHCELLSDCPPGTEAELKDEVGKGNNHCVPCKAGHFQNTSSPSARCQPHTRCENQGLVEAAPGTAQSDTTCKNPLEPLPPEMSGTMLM

B1: TPP-2090 (antibody, human IgG1, kappa, V domains shown)
VH: EVQLLESGGGLVQPGGSLRLSCAASGFTFSPYPMIWVRQAPGKGLEWVSYISPSGGSTHYADSVKGRFTISRDNSKNTLYLQMNSLRAEDTAVYYCARGGDTYFDYFDYWGQGTLVTVSS
VL: DIQMTQSPSSLSASVGDRVTITCRASQSISGYLNWYQQKPGKAPKLLIYQASSLQSGVPSRFSGSGSGTDFTLTISSLQPEDFATYYCQQSYTSPFITFGQGTKVEIKR
notes: Human IgG1
As for B1, the Kd in [1] was found to be 4.1 nM; in [2], 21.2 nM; in [3], 4.3 nM; in assay [4] it was 9.9 nM; in assay [5] it was 6 nM; in [6], 15 nM. Besides, the binding result was “binds” in [7], “binds” in assay [8], “no binding (tested: 75 nM)” in assay [9] and “no binding (tested: 250 ng/ml (TWEAKR variant))” in assay [11]. Moreover, the “% binding normalized by wt binding signal” value in [10] was < 5%.

B2: P4A8(TPP-1324) (antibody, human IgG1, kappa, V domains shown)
VH: QVQLVQSGAEVKKPGASVKVSCKGSGYTFTDYGMHWVRQAPGQGLEWMGVISTYNGYTNYNQKFKGRVTMTVDKSTSTAYMELRSLRSDDTAVYYCARAYYGNLYYAMDYWGQGTLVTVSS
VL: DIVLTQSPASLAVSLGQRATISCRASKSVSTSSYSYMHWYQQKPGQPPKLLIKYASNLESGVPARFSGSGSGTDFSLNIHPMEEDDTAMYFCQHSRELPFTFGGGTKLEIKR
notes: Human IgG1; variable domains from WO2009/140177 with constant region added
Regarding B2, the binding result in assay [12], in [13], in assay [14], in [15], in assay [16] and in assay [17] was “no binding” throughout. Moreover, the binding result is reported as “no binding” in assay [18]; “no binding” in [19]; “no binding” in assay [20]; “no binding” in [21]; “binds” in assay [22]. The “Fold induction of Caspase 3/7, 786-O cells, 100 ug/ml” value in [23] was 1.1 fold. Besides, the “Fold induction of Caspase 3/7, A253 cells, 100 ug/ml” value in [23] was 1.38 fold. Besides, the “Fold induction of Caspase 3/7, HT-29 cells, 100 ug/ml” value in [23] was 1.49 fold. Also, in assay [23], the “Fold induction of Caspase 3/7, NCI-H322 cells, 100 ug/ml” value worked out at 1.02 fold. Also, in assay [23], the “Fold induction of Caspase 3/7, WiDr cells, 100 ug/ml” value is 1.12 fold.
